# T1: aquaporin-Z, P60844
# T1 chain: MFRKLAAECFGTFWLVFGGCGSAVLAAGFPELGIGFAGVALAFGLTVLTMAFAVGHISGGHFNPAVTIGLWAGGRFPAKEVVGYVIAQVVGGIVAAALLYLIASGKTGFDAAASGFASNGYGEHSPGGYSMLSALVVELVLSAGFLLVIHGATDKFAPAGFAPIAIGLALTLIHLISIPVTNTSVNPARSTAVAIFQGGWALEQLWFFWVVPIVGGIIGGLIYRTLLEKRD
# B1: aquaporin-Z, P60844 1-231 (natural protein)
# chain: T1 chain
# modifications: here or on the partner: multiple N-terminal formylation modifications; multiple N-terminal formylation modifications
# Target: T1, aquaporin-Z, P60844
# Assay: native MS
# Conditions: remark: other sources report otherwise
binder,measurement,value
B1,stoichiometry N,4
